Measured values taken from the DeepSol protein solubility set.

Assay: soluble on expression in E. coli; label from the status in PepcDB or PDB records

Soluble on expression in E. coli, not soluble:
MGSDKIHHHHHHMRASVLSDWLAQRLDRGNGQPIYRQLHRLLQQAILTRELPPGSKVPSSRLLAQELGIGRNTVTQVYEQLVLEGYVSSATGRGTFVADSAPDEIVGVPDAAAPDTSAESSPQQAKRALSTRGARLIAGAGVSKRQWGAFMPGVPDVTKFPARVWSRLHNKYWRRLRPDLLTYAPGGGLASLRHALADYLRTSRSVRCTPEQIIITTGIHQSVDLAVRLLSDPGDVIWTEDPCYWGVRSVLHVSGLQSRPIAVDEEGINPSADDLAQPPKLMLVTPSHQYPLGMVMSLARRRMLLEYARQNQCWIIEDDYDSEYRYGSRPLASLQGLDTSGQVIYVGSFGKTLFPGLRIGYLVVPEALAESFATASAELYREGQLLQQAMLAEFIAEGHFTSHIRRMRTLYGQRRQTLLDAAAHRYGDALPAVGGDAGLHLVMQLPEGSDDRQVAATALERNIVVRPLSGYYAQPSLAPSGLLIGYACVPDEEIAPAFNTLADAIDVTLPEFA, MGSDKIHHHHHHMRATLKIAEPPVVSPSEDELRELENLYCSHGDTVHYTDKPKFFEGCEGSFVYDASQTPFLDLQMWYSAVNFGYRNERLNNAAHRQLDQLPQVASQYLHREKVELAALIARDAEQKFGHKGRVHFNVGGSQAVEDSLKLVRNFTGGKSLMFAFEGGYHGRTLGASAITSSYRYRRRYGHFSDRAQFIEFPYHFRGPKGMSKEEYGEVCVQKFARLFESEYNGVWDPKAGKSEYAAFYVEPIQGTGGYVIPPMNFFTGLKKVLDDHGILLVVDEIQMGVYRTGKLWSIEHFGVSPDVLVFGKAITNGLNPLSGIWAREEMINPTIFPPGSTHSTFASNPMGTAVALETMKMVGEGDFGASVMEKGARFLDGLKVLEKRHAIVGDVDGLGLALRMEICKEDGFTPDKATLDWMSDEGMKGDMVVDGKTYGLVLDVGGYHKNVITLAPNLMISNSEIDLALTLLDQLLTRAARR, MGSDKIHHHHHHMRDRTVEIMWQAIDALDFSRIKAKLSHQKQVQWTPESLESAEAGYRQFLKMAAKYPGVPAVPSEQVDAFWHAHILDTRRYASDCVNIFGHVLHHDPYVGIDGPEDEARLFEMAAQSDVLSMREFGSPLTSASYFAQAAADEPAYCAREATAAEPAYCARMAKGPSYCARMGKALEPAYCAREATANEVVKRDHAAGGQAAYCALTLSQPASC, MGSDKIHHHHHHMRDTWRWTMTQNKRSGNRRTPTPELDSASLVPPTVPSVVDDVEGGKPNTVEFRATYSPLRVEFHPWANSHPEIDEEYLFLYWNDVLVDKKTFSKPIEPEELFILVPVDKLIEGPHRLHYEVTLYSDTHVSSRPLDIYIDKTPPLLPADDRLMLPDYVIREGVTEEYLAANGDKLVCTVPSFIGAEPGDVVKWFYSENGAGQEMVDMMTLTQEHIETLGPLGTSKPLELTFPGAFIRQSGNGTRYVRYEVQDRAGTQPQRALAVALESDLSLAPRELPPPRIKEAKGSDYQSTLEPGNAFDGVTFVIPDDADIRPNETVTVFWGQPGTLGGYSTSTPISPGALEYLIPSQYVPPHMSGRVELYYQIDKPDVPPSPSHYVTVRKIEGLPIVQCSDIRNRALNLRTLGESTTFTLESWPFRHTSQFVNAWIDGVESGNVTREIRLPIATALPVPSETGVMVLGSVTKTELLRLAINYQFRVSVEVSFDDKLSWLKFPDAAAQLEDKP, MGSDKIHHHHHHMRGIVCVHKFCSRFSRTAYFTYGWMMNIELISLLKGNMGLTLTSELAADICVAAYRMETLAQSRDIAQIKPRYNGRIVFAVERIEDITEEIKHLHRTHWNETEGHRHRLPFQPDYETFIRYEQAGRYLLFTVRSEGKLLGNCAMYLDKSAHTQTLIATEDTLYLLPEARRGTTAKRFVRYVENAMKLLGVREINITVKTVNKAARFFRLLGYRHVENGLTKILEIENV, MGSDKIHHHHHHMRICPVPRSAPAGCARIRCLRRCAVFGRSCPKLGLWSSGARTLSHPPCADVNWPNTLCAQHVACALRSHCLTLRAPHALLGRAVRKAGDLMTTAGFQSIDAVQSELSEAGYVCGRALATVVFLSTRLGRPLFLEGEAGVGKTEIAKALAAVTGRPLIRLQCYEGLDAASAVYEWNFAAQMMAIRMAESAGQSDREALQAELFSQDYLIARPLLQAMQPDARGTPILLIDELDRTDAPFEAFLLEALSDFQVTIPELGTIRAPEPPMVILTSNRTREVHDALKRRCLYHWVDYPDFDRELEILTAQVPTASEALSRQVVAFVQSLRTEDLFKKPGVAETIDWANCLLALDVVNLSPETIADTLGALLKYQDDIARLQGSEAKRLLDEARSLLQEH
